Results as given in the supplement of paper PMC10567573.

B1: GAGE1 (parent)
chain: RPRRYVQPPEMIGPMRPEQFSDEV

Variants of: B1
Experiment: protein stability index of a GFP-peptide fusion (GPS, HEK-293T) (PSI 1-6); higher = more stable
Conditions: c terminus: a fixed tail appended
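Further: lentivirally expressed fusions sorted by FACS into six bins by GFP to DsRed ratio, PSI derived from sequencing read proportions per bin multiplied by bin number.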

Protein stability index of substitutions, site by site:
I12: V 4.77, S 4.36, E 4.57, H 4.3
R3: S 4.26, W 2.6, I 4.23, H 3.83, K 4.02, A 3.74, C 3.1, E 4.51
V24: H 4.46, F 2.74, Y 3.94, D 4.09, I 3.51, L 3.74, P 4.06, G 3.58
M15: H 3.69, Y 4, C 4.31, R 4.17, D 4.75, G 4.7, N 3.97, Q 4.58, S 4.84
R1: A 3.63, V 3.59, D 4.33, C 4.07, F 3.24, T 4.01, Y 3.29
P17: L 3.97, R 3.96, S 4.39, Y 3.36, I 3.72, M 3.88, T 3.85, C 3.79, W 3.66, K 4.14
S21: M 3.44, P 3.99, Q 3.79, V 3.64, N 3.87, G 4.17
Y5: S 4, W 3.61, H 3.81, N 4.17
P9: S 4.29, E 4.71, G 4.46, A 3.75, C 4.24, Y 3.62, I 3.57, N 3.97, V 2.61
M11: A 4.34, Q 3.84, T 3.74, L 3.4, H 4.37
E18: V 3.32, G 3.86, C 3.21, S 3.33, A 3.81, Q 3.56, M 3.45, R 3.57
F20: P 4.72, E 4.97, L 4.5, W 3.94, S 4.42, V 4.71, G 4.85, I 4.31
R16: K 3.94, S 3.87, I 4.44, H 4.29, T 3.8, A 4.31, E 4.3, Q 4.26
Q19: G 4.28, D 3.69, C 4.16, I 3.78, N 3.79, H 3.62
P14: T 4.44, H 4.31, Q 4.23, I 4.13, E 4.41, A 4.38, S 4.13
E23: D 3.77, H 3.6, Q 3.63, V 3.77, K 3.65
R4: V 3.89, G 4.12, E 3.92, W 3.09, C 3.64, M 4.07, I 3.43
Q7: Y 3.73, L 3.85, R 3.29, P 3.96, S 4.24, G 3.3, A 3.77, F 3.87, H 4.14
E10: P 4.25, Y 3.18, V 3.99, N 3.97, R 4.39, D 4.51, W 3.56, Q 3.69, L 3.39, H 4.32
D22: F 2.16, C 3.14, K 3.88, R 3.5, M 3.06, V 2.9
P8: Y 3.52, I 3.27, S 4.36, H 4.18, Q 3.37, V 3.5, L 3.31, C 3.61
V6: E 3.92, S 4.17, I 3.94, K 3.83, A 3.3
P2: R 4.1, H 3.61, N 3.51, Q 3.45
G13: H 4.07, K 3.72, D 4.63, L 3.71, R 4.19, A 4.21
